± gives the standard deviation of the averaged measurements.

In the series the test system is Saccharomyces cerevisiae. The series can be described thus: protein stability index of tFT-peptide fusion (C-terminal peptide) (PSI (0-1 scale)); higher = more stable (slower turnover). To be noted: temperature: 30 C. On the procedure:
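MPS profiling in S. cerevisiae of the yeast C-terminome library: the last 12 aa of each annotated ORF are fused to the C-terminus of a sfGFP-mCherry timer, after a GGGS linker. Cells are FACS-sorted into 8 mCherry/sfGFP bins and deep-sequenced. PSI runs from 0 (unstable) to 1 (stable); wild type and das1Δ backgrounds, two technical replicates each.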

The mark [1] stands for this setting: genetic background: das1 deletion.

Consider FVEGGDGKYVLN [YPL113C C-terminal 12 aa], for which the protein stability index by setting is: under setting [1], 0.688 ± 0.016; (genetic background: wild type) 0.676 ± 0.014.
In the case of FVKDEIHKDILD [PEX21 C-terminal 12 aa], the protein stability index reads like this: under setting [1], 0.7 ± 0.017; (genetic background: wild type) 0.685 ± 0.011.
Taken in the same sequence, the figures for FVKVIDYTSNGW [PBY1 C-terminal 12 aa] were 0.676 ± 0.0086 and 0.685 ± 0.015.
Consider “FVLSISFRQEQT [YER172C-A C-terminal 12 aa]”, for which the protein stability index is, setting by setting: under setting [1], 0.577 ± 0.042; (genetic background: wild type) 0.591 ± 0.025.
Taken in the same sequence, the figures for FYSLCEKGGYLK [BPT1 C-terminal 12 aa] were 0.679 ± 0.014 and 0.66733 ± 0.00062.
For FYSVFALMVIFV [YIP1 C-terminal 12 aa] the same measures were 0.178 ± 0.013 and 0.122 ± 0.003.
GAAVGGALAFLI [DDR2 C-terminal 12 aa]: the protein stability index under setting [1] turned out to be 0.702 ± 0.02 and the protein stability index (genetic background: wild type) worked out at 0.677 ± 0.0076.
In the case of GAIMGAAAFALL [TOS6 C-terminal 12 aa], the protein stability index amounted to 0.699 ± 0.013 under setting [1] and 0.729 ± 0.053 (genetic background: wild type).
Taken in the same sequence, the figures for GAQPHLYIPDED [USA1 C-terminal 12 aa] were 0.6896 ± 0.0026 and 0.6982 ± 0.003.
On to GCSLQISYARRD [GBP2 C-terminal 12 aa], for which the protein stability index runs as follows: under setting [1], 0.706 ± 0.018; (genetic background: wild type) 0.6525 ± 0.0037.
Taken in the same sequence, the figures for GCVKMYKFDLND [MET30 C-terminal 12 aa] were 0.713 ± 0.044 and 0.7322 ± 0.0023.
Taken in the same sequence, the figures for GDLLSLKGEIMQ [ALK2 C-terminal 12 aa] were 0.689 ± 0.022 and 0.691 ± 0.029.
Taken in the same sequence, the figures for GDVSNLPYLDEL [QCR2 C-terminal 12 aa] were 0.694 ± 0.013 and 0.722 ± 0.039.
As to GDYTVKQPEATK [AIM9 C-terminal 12 aa], the protein stability index is 0.703 ± 0.013 under setting [1] and 0.672 ± 0.029 (genetic background: wild type).
Taken in the same sequence, the figures for GEDPYMDLMKEF [TPK3 C-terminal 12 aa] were 0.745 ± 0.013 and 0.733 ± 0.036.
Taken in the same sequence, the figures for GEDTGPTVEEVD [SSA3 C-terminal 12 aa] were 0.682 ± 0.013 and 0.684 ± 0.015.
Regarding GGGVLQLISYIL [YSY6 C-terminal 12 aa], the protein stability index runs as follows: under setting [1], 0.706 ± 0.0057; (genetic background: wild type) 0.656 ± 0.015.
For GGKDKMVRLWTH [RSA4 C-terminal 12 aa] the same measures were 0.691 ± 0.011 and 0.698 ± 0.0076.
Turning to GGPFPYYFNTFC [YKL169C C-terminal 12 aa], the protein stability index under setting [1] was 0.704 ± 0.028 and the protein stability index (genetic background: wild type) came out at 0.53 ± 0.027.
Taken in the same sequence, the figures for GHSHKHKGHQKK [KRI1 C-terminal 12 aa] were 0.673 ± 0.008 and 0.667 ± 0.018.
For GIHPPEPIAAAA [KTI11 C-terminal 12 aa] the same measures were 0.3 ± 0.031 and 0.357 ± 0.017.
The sequence GKNQWFFSKLRF [RPL27A C-terminal 12 aa] came in with a protein stability index under setting [1] of 0.707 ± 0.0096 and a protein stability index (genetic background: wild type) of 0.683 ± 0.013.
Taken in the same sequence, the figures for GLKQKSTIVTVD [CDC5 C-terminal 12 aa] were 0.6917 ± 0.0015 and 0.717 ± 0.078.
As to GLLVVFDRIDVK [MET7 C-terminal 12 aa], the protein stability index was 0.667 ± 0.015 under setting [1] and 0.634 ± 0.013 (genetic background: wild type).
Taken in the same sequence, the figures for GLTLIGRQSDSI [RAD7 C-terminal 12 aa] were 0.7025 ± 0.0011 and 0.71 ± 0.074.
GMYSRAYETHTL [ERG7 C-terminal 12 aa]: the protein stability index stood at 0.7 ± 0.012 under setting [1] and 0.696 ± 0.022 (genetic background: wild type).
For GNAEFAASLLFQ [DDI1 C-terminal 12 aa] the same measures were 0.7205 ± 0.0066 and 0.7022 ± 0.0025.
Consider GNEPMEKFIQSL [YMR090W C-terminal 12 aa], for which the protein stability index reads like this: under setting [1], 0.694 ± 0.005; (genetic background: wild type) 0.669 ± 0.0072.
For GNSGGSNNSSWW [DED1 C-terminal 12 aa] the same measures were 0.71484 ± 0.00065 and 0.697 ± 0.02.
Taken in the same sequence, the figures for GNTGSGGYDNAW [RPB3 C-terminal 12 aa] were 0.704 ± 0.052 and 0.723 ± 0.026.
For GPDAPLSKMKYE [SCS7 C-terminal 12 aa] the same measures were 0.684 ± 0.0086 and 0.704 ± 0.0071.
Take GQLLSGSCLLNM [YBR226C C-terminal 12 aa]: the protein stability index runs as follows: under setting [1], 0.686 ± 0.013; (genetic background: wild type) 0.679 ± 0.053.
For GRPSMVPIAELK [MLH3 C-terminal 12 aa] the same measures were 0.672 ± 0.019 and 0.714 ± 0.062.
GSGDEPDSKRRK [YCR051W C-terminal 12 aa]: the protein stability index turned out to be 0.693 ± 0.044 under setting [1] and 0.666 ± 0.037 (genetic background: wild type).
Taken in the same sequence, the figures for GTQVMYISEQKI [LSM6 C-terminal 12 aa] were 0.698 ± 0.0048 and 0.713 ± 0.016.
In turn, GVEKYWGILSNE [SCW4 C-terminal 12 aa] came in with a protein stability index under setting [1] of 0.723 ± 0.0089 and a protein stability index (genetic background: wild type) of 0.726 ± 0.039.
For GVETIAKCIDLL [CAR2 C-terminal 12 aa] the same measures were 0.71 ± 0.017 and 0.698 ± 0.011.
As for GVIIELGSWSAW [YDR415C C-terminal 12 aa], the protein stability index is, setting by setting: under setting [1], 0.7055 ± 0.0066; (genetic background: wild type) 0.71701 ± 0.00054.
On to GWLQDKHFEKYL [YOR338W C-terminal 12 aa], for which the protein stability index reads like this: under setting [1], 0.705 ± 0.022; (genetic background: wild type) 0.447 ± 0.03.
Take HAKGSGNTMNRG [TAP42 C-terminal 12 aa]: the protein stability index under setting [1] is 0.691 ± 0.029 and the protein stability index (genetic background: wild type) worked out at 0.664 ± 0.015.
On to HCQPQEILVLRQ [PEX10 C-terminal 12 aa], for which the protein stability index worked out at 0.7094 ± 0.0062 under setting [1] and 0.7 ± 0.013 (genetic background: wild type).
With HDRSESDSDLDI [PLP1 C-terminal 12 aa], the protein stability index stood at 0.671 ± 0.015 under setting [1] and 0.677 ± 0.015 (genetic background: wild type).
Regarding HELSKDFSNLGI [NAM7 C-terminal 12 aa], the protein stability index runs as follows: under setting [1], 0.7008 ± 0.00089; (genetic background: wild type) 0.683 ± 0.038.
For HGNWSRVVTDLN [BAT2 C-terminal 12 aa] the same measures were 0.6869 ± 0.0056 and 0.722 ± 0.1.
For HLENELKDQQEL [ATM1 C-terminal 12 aa] the same measures were 0.718 ± 0.0099 and 0.715 ± 0.017.
Take HLPKATSLPYEK [YER097W C-terminal 12 aa]: the protein stability index amounted to 0.677 ± 0.0085 under setting [1] and 0.679 ± 0.055 (genetic background: wild type).
For the sequence HPWFAEYYHHAS [PHO85 C-terminal 12 aa], the protein stability index reads like this: under setting [1], 0.7438 ± 0.0043; (genetic background: wild type) 0.7174 ± 0.0026.
For HRSFFKDIIPEL [KIN82 C-terminal 12 aa] the same measures were 0.723 ± 0.013 and 0.693 ± 0.022.
In the case of IAEGKSVGIIGA [HXK2 C-terminal 12 aa], the protein stability index reads like this: under setting [1], 0.694 ± 0.022; (genetic background: wild type) 0.682 ± 0.018.
Consider IAKEHDKIPKFL [INA22 C-terminal 12 aa], for which the protein stability index worked out at 0.695 ± 0.027 under setting [1] and 0.672 ± 0.06 (genetic background: wild type).
For IASKNNWLPLQW [SIW14 C-terminal 12 aa] the same measures were 0.73114 ± 0.00013 and 0.732 ± 0.045.
For the sequence IDDEDVVSLFAK [RBG2 C-terminal 12 aa], the protein stability index runs as follows: under setting [1], 0.714 ± 0.035; (genetic background: wild type) 0.732 ± 0.057.
For IEEAASSLGFKR [PES4 C-terminal 12 aa] the same measures were 0.726 ± 0.027 and 0.701 ± 0.023.
IEELTDTLNSTI [PEX29 C-terminal 12 aa]: the protein stability index runs as follows: under setting [1], 0.7059 ± 0.0039; (genetic background: wild type) 0.698 ± 0.024.
As to IEQSFGVIEYFP [SCW11 C-terminal 12 aa], the protein stability index runs as follows: under setting [1], 0.717 ± 0.037; (genetic background: wild type) 0.71 ± 0.011.
Take IFHELKRQNSKN [RGD2 C-terminal 12 aa]: the protein stability index turned out to be 0.739 ± 0.035 under setting [1] and 0.717 ± 0.052 (genetic background: wild type).
For “IFVYPLFLLSTF [YEL053W-A C-terminal 12 aa]” the same measures were 0.482 ± 0.051 and 0.335 ± 0.0099.
On to IGTLIPEPGVNV [DAP1 C-terminal 12 aa], for which the protein stability index stood at 0.6825 ± 0.0027 under setting [1] and 0.676 ± 0.032 (genetic background: wild type).
For the sequence IHCRSQNCLSLS [VBA4 C-terminal 12 aa], the protein stability index runs as follows: under setting [1], 0.687 ± 0.024; (genetic background: wild type) 0.681 ± 0.016.
For IHKENKEFYLIL [YGL118C C-terminal 12 aa] the same measures were 0.703 ± 0.015 and 0.6731 ± 0.00094.
For IIDELEQIALQQ [BRE2 C-terminal 12 aa], the protein stability index under setting [1] was 0.69735 ± 0.00015 and the protein stability index (genetic background: wild type) is 0.748 ± 0.04.
IIDELQKCHMQE [CDC27 C-terminal 12 aa]: the protein stability index is 0.706 ± 0.0081 under setting [1] and 0.6895 ± 0.0016 (genetic background: wild type).
IKCKMPWSSPRQ [YOR238W C-terminal 12 aa]: the protein stability index under setting [1] worked out at 0.705 ± 0.03 and the protein stability index (genetic background: wild type) was found to be 0.744 ± 0.032.
For the sequence ILDLDPRTEAYC [YGL260W C-terminal 12 aa], the protein stability index under setting [1] was found to be 0.733 ± 0.02 and the protein stability index (genetic background: wild type) is 0.691 ± 0.013.
For ILDMFAKRWILS [IZH3 C-terminal 12 aa] the same measures were 0.697 ± 0.015 and 0.552 ± 0.043.
As for ILDSFEEWSDEE [HDA1 C-terminal 12 aa], the protein stability index reads like this: under setting [1], 0.7224 ± 0.0053; (genetic background: wild type) 0.688 ± 0.0073.
For ILFSFFCNLVAK [VTC4 C-terminal 12 aa], the protein stability index runs as follows: under setting [1], 0.524 ± 0.011; (genetic background: wild type) 0.4997 ± 0.0011.

These data come from the supplement of paper PMC10724198.
